Measurements: patent publication US20240325555A1 (LANOVA MEDICINES, published 2024)
Numbering of substitutions follows the chain as printed.

T1: human LIV-1 (human, UniProt Q13433 29-755)
T1 sequence (looked up): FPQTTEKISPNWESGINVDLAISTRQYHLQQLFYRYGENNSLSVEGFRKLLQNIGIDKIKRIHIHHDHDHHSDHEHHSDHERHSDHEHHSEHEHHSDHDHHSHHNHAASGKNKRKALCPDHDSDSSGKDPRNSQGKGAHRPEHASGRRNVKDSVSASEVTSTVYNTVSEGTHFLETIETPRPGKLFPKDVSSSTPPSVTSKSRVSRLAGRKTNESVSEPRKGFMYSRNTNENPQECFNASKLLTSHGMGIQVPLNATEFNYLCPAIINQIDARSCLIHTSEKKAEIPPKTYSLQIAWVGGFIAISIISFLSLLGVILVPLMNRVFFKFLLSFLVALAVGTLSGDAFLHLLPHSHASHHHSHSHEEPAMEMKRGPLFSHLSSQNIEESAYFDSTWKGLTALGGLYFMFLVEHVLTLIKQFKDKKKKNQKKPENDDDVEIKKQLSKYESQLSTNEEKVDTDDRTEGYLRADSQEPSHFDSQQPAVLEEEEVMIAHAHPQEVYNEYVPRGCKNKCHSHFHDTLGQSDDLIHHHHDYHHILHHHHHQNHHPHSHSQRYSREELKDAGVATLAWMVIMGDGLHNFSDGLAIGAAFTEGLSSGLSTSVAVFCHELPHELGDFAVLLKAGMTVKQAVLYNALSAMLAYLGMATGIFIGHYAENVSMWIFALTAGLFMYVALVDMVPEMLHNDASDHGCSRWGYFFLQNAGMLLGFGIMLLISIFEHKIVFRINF

B1: 135C6E7 (antibody, V domains shown)
VH: EVQLVESGGGLVQPKGSLKLSCAASGFTFNTYAMNWVRQAPGKGLEWVARIRSKYNSYATYYADSVKDRFTISRDDSQSILYLQMNNLKTEDTAMYYCVRHEDYDGGFAYWGQGTLVTVSA
VL: DIVMSQSPSSLAVSVGEKVTMSCKSSQSLFKSRTRKNYLAWYQQKPGQSPKLLIYWASTRESGVPDRFTGSGSGTDFTLTISSVQAEDLAVYYCKESYNLMYTFGGGTKLEIK
notes: Tested as chimeric antibody
B2: 108H1D4 (antibody, V domains shown)
VH: EVKLVESGGDLVQPGGSRKLSCAASGFTFSDYGMAWFRQAPGKGPEWVAFISNLAYNIYYADTVTGRFTISRENARNTLYLEMSSLRSEDTAMYYCAREGGITTVPATDYFDYWGQGTTLTVSS
VL: DIQMTQTTSSLSASLGDRVTFSCRASQDIRNYLNWYQQKPDGTVKLLIYYTSRLHSGVPSRFSGSGSGTDYSLTINNLEQEDLATYFCQQVNALPLTFGAGTKLELK
notes: Tested as chimeric antibody
B3: 248H1G3 (antibody, V domains shown)
VH: EVQLQQSGPELMKRGASVKISCKTSTFTFTEFTIHWVKQSHGKSLEWIGGINPNTGGTSYNQNFTGKATLTVDKSSITAYMELRSLTSEDSAIYYCAPNWDGYWFFDVWGAGTTVTVSS
VL: DIQMTQSPASLSASVGETVTITCRASGNIQNYLAWYQQKQGKSPQLLVYGAKTLADGVPSRFSGSGSGTQFSLKINSLQPEDFGSYYCQHFWSPPLTFGAGTKLELK
notes: Tested as chimeric antibody
B4: 109C9D4 (antibody, V domains shown)
VH: EVKLVESGGGLVQPGGSRKLSCAASGFTFSDYGMAWVRQAPGKGPEWVTFISNLAYSIYYADTVTGRFTISRENAKNTLYLEMSSLRSEDTAMYYCARVEENGNYFDYWGQGTTLTVSS
VL: DIQMTQTTSSLSASLGDRVTIRCRASQDIGIYLHWYQQKPDGTVKLLIYYTSRLHSGVPSRFSGSRSGTDYSLTIGNLEQEDIATYFCLQGNTIPPTFGGGTKLEIK
notes: Tested as chimeric antibody
B5: 59C12C8 (antibody, V domains shown)
VH: EVQLQQSGAELVRSGASVKLSCTASDFNIEDYYIHWVKQRPEQGLEWIGWIDPENGDTEYAPKFQGKATMTADTSSNTAYLQLSSLTSEDTAVYYCPHGGGFRVFDYWGQGTTLTVSS
VL: DVLMTQTPLSLPVSLGDQASISCRSSQRIVHSNGNTYLEWYLQKPGQSPKLLIYKVSNRFSGVPDRFSGSGSGTDFTLKISRVEAEDLGVYYCFQGSHVPWTFGGGTKLEIK
notes: Tested as chimeric antibody
B6: 124H4D11 (antibody, V domains shown)
VH: EVPLQQSGAELVRSGASVKLSCTASGFNIKDYYMHWVKQRPEQGLEWIGWIDPENGDTEYDPKFQGKATMTADTSSNTADLQLSSLTSEDTAVYYCNARYYAFDYWGQGTTLTVSS
VL: B5 VL with R28S, D75E, H98Q, W101P, K108R
notes: Tested as chimeric antibody
B7: 112H11C12 (antibody, V domains shown)
VH: QVQLQQPGAELVRPGASVKLSCKASGYTFTSYWMNWVKQRPGQGLKWIGMIDPSNSKTHYNQMFKDKATLTVDKSSNTAYMQLSSLTSEDSAVYYCARTSTTMATFAYWGQGTLVSVSA
VL: B5 VL with R28S, G96A, V99F, W101L, G105A, K108E, E110D, I111L, K112N
notes: Tested as chimeric antibody; also called 112H1C12
B8: 136F3D10C10 (antibody, V domains shown)
VH: QVQLQQSGPELVKPGASVRIFCKASGYTFTSFHIHWVKQRPGQGLEWIGWIYPGNDNTDHNEKFKGKATLSADKSSSTVYMQLSSLTSEDSAVYFCGRSNYYGPLFAYWGQGTLVTVSA
VL: B5 VL with V2I, R28N, H31R, L51V, K55R, H98Y, W101Y
notes: Tested as chimeric antibody
B9: 286B5E6 (antibody, V domains shown)
VH: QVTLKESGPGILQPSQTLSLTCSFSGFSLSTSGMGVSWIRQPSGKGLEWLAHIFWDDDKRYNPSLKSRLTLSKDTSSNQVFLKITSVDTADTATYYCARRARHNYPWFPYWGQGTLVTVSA
VL: DIVLTQSPASLAVSLGQRATISCKASQSVDYDGDSYMNWYQQKPGQPPKLLIYAASNLESGIPARFSGSGSGTDFTLNIHPVEEEDAATYYCQQSNEGPYTFGGGTKLEIK
notes: Tested as chimeric antibody
B10: 282G5A2 (antibody, V domains shown)
VH: QVQLQQSGAELVRPGTSVKVSCKASGYALTKYLIEWIKQRPGQGLEWIGVINPGNAGNNYNEKFKGKATLTVDQSSSTAYMQLSSLTSEDSAVYFCARRGRDYAMDNWGQGTSVTVSS
VL: EIVLTQSPAIMSASLGEKVTMSCRASSSINYIYWYQQKSDASPKLWIYYTSNLAPGVPARFSGSGSGNSYSLTISSMEDEDAATYYCQQFTSSPLTFGAGTKLELK
notes: Tested as chimeric antibody

Experiments:
cynomolgus LIV-1 = cynomolgus LIV-1 (cynomolgus, UniProt A0A2K5WH46 30-741); experiment: FACS, HEK293/Cyno_LIV-1 cells
How it was run: (§1)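 HEK293 cells over-expressing human or cyno LIV-1 incubated with chimeric Abs (from 100 nM, 5-fold dilutions, 8 points) for 60 min at 4 °C, then fluorescent secondary antibody 30 min at 4 °C; washes in 2% FBS/PBS. Binding read by flow cytometry; EC50 from the titration curve.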

human LIV-1 [1] = biological target: T1, human LIV-1; experiment: cell-based or functional assay
human LIV-1 [2] = biological target: T1, human LIV-1; experiment: cell-based or functional assay; remark: listed apart in the source
human LIV-1 [3] = biological target: T1, human LIV-1; experiment: FACS, HEK293/H_LIV-1 cells
How it was run: as §1

human LIV-1 [4] = biological target: T1, human LIV-1; experiment: cell-based or functional assay; remark: listed apart in the source

Row | Binder | EC50 (cynomolgus LIV-1) [nM] | Top (MFI) (cynomolgus LIV-1) | ADCC reporter EC50 (human LIV-1 [1]) [nM] | ADCC reporter Top (RFU) (human LIV-1 [1]) | Internalization EC50 (human LIV-1 [2]) [nM] | Internalization Top (RFU) (human LIV-1 [2]) | EC50 (human LIV-1 [3]) [nM] | Top (MFI) (human LIV-1 [3]) | Cell viability(%) (human LIV-1 [4]) | Cytotoxicity IC50 (human LIV-1 [4]) [nM]
1 | B1 | 2.69 | 6290 | 6.4 | 53100 | 12.4 | 675000 | 3.6 | 16500 | 17.6 | 4.6
2 | B2 | 130 | 762 | 8.3 | 139000 | 4.8 | 511000 | 0.9 | 8800 | 17.3 | 0.7
3 | B3 | 2.05 | 2700 | 0.5 | 61600 | 4.6 | 357000 | 0.89 | 9640 | 3.31 | 2.99
4 | B4 | 1.33 | 2340 | 4.1 | 101000 | 4.2 | 554000 | 0.43 | 7340 | 18.5 | 0.69
5 | B5 | 0.11 | 8060 | 1.1 | 36300 | 3.9 | 408000 | 0.1 | 15100 | 20.3 | 0.81
6 | B6 | 0.2 | 3370 | 2.1 | 81900 | 4.3 | 474000 | 0.23 | 7980 | 15.4 | 0.57
7 | B7 | 12 | 2930 | 20.5 | 74700 | 13.2 | 643000 | 20.7 | 8800 | 18 | 2.08
8 | B8 | 0.76 | 3450 | 4.8 | 83900 | 32.2 | 835000 | 0.85 | 7910 | 16.3 | 1.21
9 | B9 | 0.55 | 2490 | 1.1 | 47800 | 4.6 | 448000 | 0.32 | 8090 | 4.88 | 1.39
10 | B10 | 0.87 | 13000 | 1.2 | 11300 | 41.2 | 227000 | 1.12 | 19700 | 8.58 | 12.1
